Assay results from patent publication US20200383981.

Test system: wild-type human IDO1

human Src Y530F
tyrosine phosphorylation of human IDO1 Tyr249 (ITIM2), western blot of SW837 IDO1WT lysate: Expression of human Src Y530F in SW837 IDO1WT cells was shown to enhance tyrosine phosphorylation of human IDO1 Tyr249 (ITIM2)
